This note sets out measurements from patent US8173604 (ALBERT EINSTEIN COLLEGE OF MEDICINE OF YESHIVA UNIVERSITY, dated 2012).

Numbering of substitutions follows the chain as printed.

Usually Ki stands for the equilibrium dissociation constant of an inhibitor or competing ligand from its target. Low values mean a stronger hold on the target, high ones a looser hold on the target.

Assay [1] concerns the target T1, insect cell-produced and purified GST-cyclin A/Cdk2 (kinase reactions, ~3 nM) (UniProt P20248 1-432; P24941 1-298). Nature of the assay: cell-based or functional assay.
Assay [2] addresses T1, insect cell-produced and purified …. Put plainly: kinase inhibition: purified proteins, ~3 nM GST-cyclin A/Cdk2, Rb-C phosphorylation, non-linear least squares (FIG. 7F).
Assay [3] deals with cyclin D1/Cdk4 (transfected 293T cell extracts) (UniProt P24385 1-295; P11802 1-303). Nature of the assay: GST pull-down with transfected 293T extracts (FIG. 4E).
The target of assay [4] is Cdk2 alone (singly transfected 293T cell extract) (UniProt P24941 1-298). Nature of the assay: GST pull-down with singly transfected 293T extracts (FIG. 4A).
Assay [5] addresses T2, cyclin A 309-432 fragment (C-terminal cyclin-fold and the C-terminus) (UniProt P20248 309-432).
T2 construct: In transfected 293T cell extract; not shown: myc tag
Nature of the assay: GST pull-down with transfected 293T extracts (FIG. 4C).

For assay [6], the target named is myc-cyclin A/Cdk2 (293T cell extracts transfected with myc-cyclin A and Cdk2) (UniProt P20248 1-432; P24941 1-298). Put plainly: GST pull-down with myc-cyclin A/Cdk2 transfected 293T extracts (FIG. 3C).
The target in assay [7] is T3, Skp1, Cul-1 and myc-Roc1 (SCF subunits co-expressed with flag-Skp2 in 293T cells) (UniProt P63208 1-163; Q13616 1-776; P62877 1-108).
T3 construct: The three other subunits of the SCF complex, co-immunoprecipitated via the flag tag on Skp2; also called Skp1-Cul1-Roc1; SCF^Skp2Roc1 complex subunits; not shown: myc tag
Put plainly: co-expression in 293T cells, anti-flag IP-Western (FIG. 2A).

The target of assay [8] is T4, myc tagged cyclin A (expressed alone or cotransfected in 293T cells) (UniProt P20248 1-432).
T4 construct: domain: full-length; also called myc-cyclin A; cyclin A alone; not shown: myc tag
Put plainly: IP-Western with transfected 293T cell extracts (FIG. 1E).

Assay [9] concerns the target cellular cyclin A (endogenous, U2OS cells; associated with Cdk2) (human, UniProt P20248 1-432). Put plainly: cell-based or functional assay.
Assay [10] has as its target T4, myc tagged cyclin A (expressed alone or …). Put plainly: cotransfection, IP-Western in 293T cells (FIG. 1A).

Chain of cyclin D1/Cdk4 (transfected 293T cell extracts) (P24385 whole entry, chain 1 of 2): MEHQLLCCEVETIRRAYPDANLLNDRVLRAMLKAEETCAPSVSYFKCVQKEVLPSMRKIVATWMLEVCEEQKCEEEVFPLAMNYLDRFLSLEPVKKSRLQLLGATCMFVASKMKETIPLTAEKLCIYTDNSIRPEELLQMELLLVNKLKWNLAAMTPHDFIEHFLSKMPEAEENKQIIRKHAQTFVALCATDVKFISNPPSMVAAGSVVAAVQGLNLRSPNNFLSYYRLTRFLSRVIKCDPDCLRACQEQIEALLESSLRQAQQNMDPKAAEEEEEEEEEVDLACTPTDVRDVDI
Chain of cyclin D1/Cdk4 (transfected 293T cell extracts) (P11802 whole entry, chain 2 of 2): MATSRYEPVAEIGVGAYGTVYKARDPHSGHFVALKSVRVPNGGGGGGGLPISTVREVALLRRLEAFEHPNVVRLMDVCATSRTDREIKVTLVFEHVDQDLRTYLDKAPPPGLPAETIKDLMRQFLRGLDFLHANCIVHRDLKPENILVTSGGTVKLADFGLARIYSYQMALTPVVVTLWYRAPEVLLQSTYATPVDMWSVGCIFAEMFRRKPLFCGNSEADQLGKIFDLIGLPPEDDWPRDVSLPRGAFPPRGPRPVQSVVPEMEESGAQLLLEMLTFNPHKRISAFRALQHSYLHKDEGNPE
T3 sequence (P63208 whole entry, chain 1 of 3): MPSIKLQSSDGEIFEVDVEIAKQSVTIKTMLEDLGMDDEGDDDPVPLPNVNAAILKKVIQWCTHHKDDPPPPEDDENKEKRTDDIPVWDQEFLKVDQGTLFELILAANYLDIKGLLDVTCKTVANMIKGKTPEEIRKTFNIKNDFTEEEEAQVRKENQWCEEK
T3 sequence (Q13616 whole entry, chain 2 of 3): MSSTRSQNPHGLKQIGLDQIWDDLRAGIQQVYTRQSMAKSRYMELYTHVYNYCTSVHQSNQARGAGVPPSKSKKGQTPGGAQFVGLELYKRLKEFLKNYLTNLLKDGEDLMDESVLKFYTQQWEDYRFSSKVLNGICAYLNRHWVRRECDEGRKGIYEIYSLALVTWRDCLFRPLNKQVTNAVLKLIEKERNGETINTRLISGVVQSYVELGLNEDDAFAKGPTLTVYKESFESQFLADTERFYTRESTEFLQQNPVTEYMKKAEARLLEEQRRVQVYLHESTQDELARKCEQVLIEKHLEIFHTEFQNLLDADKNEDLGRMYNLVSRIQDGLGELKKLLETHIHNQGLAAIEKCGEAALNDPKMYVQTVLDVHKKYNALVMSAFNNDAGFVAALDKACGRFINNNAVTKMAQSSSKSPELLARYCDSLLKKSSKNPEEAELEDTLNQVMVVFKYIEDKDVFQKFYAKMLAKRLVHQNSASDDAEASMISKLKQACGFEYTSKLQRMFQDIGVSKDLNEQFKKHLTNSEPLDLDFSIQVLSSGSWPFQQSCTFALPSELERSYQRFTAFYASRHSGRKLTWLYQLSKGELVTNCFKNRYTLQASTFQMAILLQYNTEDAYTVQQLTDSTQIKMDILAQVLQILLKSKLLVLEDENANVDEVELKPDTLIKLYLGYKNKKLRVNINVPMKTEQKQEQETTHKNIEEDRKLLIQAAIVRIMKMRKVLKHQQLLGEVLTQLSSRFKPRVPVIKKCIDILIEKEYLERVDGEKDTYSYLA
T3 sequence (P62877 whole entry, chain 3 of 3): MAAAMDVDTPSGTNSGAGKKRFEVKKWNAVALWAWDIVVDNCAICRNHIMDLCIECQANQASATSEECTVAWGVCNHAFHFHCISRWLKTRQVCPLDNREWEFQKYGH

B1: Skp2N (eluted, GST cleaved off by thrombin) (other)
chain: MHVFKTPGPADAMHRKHLQEIPDLSSNVATSFTWGWDSSKTSELLSGMGVSALEKEEPDSENIPQELLSNLGHPESPPRKRLKSKGSDKDFVIVRRPKLN
notes: also called eluted and GST cleaved Skp2N; Skp2 N-terminus
For B1, the “Ki of p27 for cyclin A/Cdk2 kinase activity (Rb-C phosphorylation) in the presence of 80 nM of Skp2N” value in assay [1] was roughly 0.08 µM. In assay [2], this molecule registered a Ki of roughly 0.52 µM.

B2: GST-Skp2N (Skp2 N-terminus cloned into pGEX-2T) (other)
chain: B1 chain
notes: not shown: glutathione S-transferase (GST) moiety of vector pGEX-2T, N-terminal fusion partner
For B2, the binding result in [3], in [4] and in assay [5] was “no binding” throughout.

B3: GST-Skp2N-AAA53 (other)
chain: B1 chain with S51A, L53A
notes: Residue 52 is already alanine; not shown: glutathione S-transferase (GST) moiety of vector pGEX-2T, N-terminal fusion partner
Consider B3, for which the binding result in assay [6] was “no binding”.

B4: GST-Skp2N-AA45 (other)
chain: B1 chain with L44A, L45A
notes: as for B2
Turning to B4, in assay [6], the binding result is on record as “no binding”.

B5: Skp2AAAA (full-length Skp2 with the four conserved residues of the 40-60 sequence mutated to alanine, flag tagged) (other)
chain: MHVFKTPGPADAMHRKHLQEIPDLSSNVATSFTWGWDSSKTSEAASGMGVAAAEKEEPDSENIPQELLSNLGHPESPPRKRLKSKGSDKDFVIVRRPKLNRENFPGVSWDSLPDELLLGIFSCLCLPELLKVSGVCKRWYRLASDESLWQTLDLTGKNLHPDVTGRLLSQGVIAFRCPRSFMDQPLAEHFSPFRVQDMDLSNSVIEVSTLHGILSQCSKLQNLSLELRLSDPIVNTLAKNSNLVRLNLPGCPGFPKFPLQTFLSSCPRLDELNLSWCFNFTEKHVQVAVAHVSETMTQLNLSGYRKNLQKSDLSTLVRRCPNLVHLDLSNSVMLKNDCFQEFSQLNYLQHLSLSRCYDIIPETLLELGEIPTLKTLQVFGIVPDGTLQLLKEALPHLQINCSHFTTIARPTIGNKKNQEIWGIKCRLTLQKPSCL
notes: also called Skp2AAAA mutant; flag tagged Skp2AAAA; not shown: flag tag
Turning to B5, the binding result in assay [7] was “binds”; in assay [8], “no binding”.
Take YGRKKRRQRRRGPVKRRLDL [TAT-LDL peptide (TAT fused to the E2F1-derived LDL peptide)]: in assay [9], the “IC50 of U2OS cell killing (MTS assay, 24 hours)” value was 7.5 µM. In addition, the “in vitro cyclin A/Cdk2 kinase activity towards GST-Rb-C” value in [1] turned out to be 10 fold.
Take YGRKKRRQRRRGKTSELLSGMGVSALEKEE [TAT-4060 peptide (HIV TAT domain fused to the 4060 peptide with a glycine linker)]: the “IC50 of U2OS cell killing (MTS assay, 24 hours)” value in [9] was 35 µM.

B6: Skp2LRR (C-terminal fragment of Skp2 divided at residue 150) (other)
chain: TLDLTGKNLHPDVTGRLLSQGVIAFRCPRSFMDQPLAEHFSPFRVQDMDLSNSVIEVSTLHGILSQCSKLQNLSLELRLSDPIVNTLAKNSNLVRLNLPGCPGFPKFPLQTFLSSCPRLDELNLSWCFNFTEKHVQVAVAHVSETMTQLNLSGYRKNLQKSDLSTLVRRCPNLVHLDLSNSVMLKNDCFQEFSQLNYLQHLSLSRCYDIIPETLLELGEIPTLKTLQVFGIVPDGTLQLLKEALPHLQINCSHFTTIARPTIGNKKNQEIWGIKCRLTLQKPSCL
notes: also called LRR fragment
As for B6, the binding result in assay [10] was “no binding”.

B7: Skp2NF (N-terminal fragment of Skp2 divided at residue 150) (other)
chain: MHVFKTPGPADAMHRKHLQEIPDLSSNVATSFTWGWDSSKTSELLSGMGVSALEKEEPDSENIPQELLSNLGHPESPPRKRLKSKGSDKDFVIVRRPKLNRENFPGVSWDSLPDELLLGIFSCLCLPELLKVSGVCKRWYRLASDESLWQ
notes: also called NF fragment
Turning to B7, in assay [10], the binding result was “binds”.
